From the supplement of paper PMC9170038

System: MS2 coat protein
Assay: apparent KD of MS2 coat protein; designed switch direction (-1 OFF switch, 1 ON switch): -1; higher = weaker reporter binding
In short: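 Designed RNA switches with common flanks were transcribed on Illumina chips by stalled E. coli RNA polymerase and titrated with SNAP-549-labelled MS2 coat protein, from 0.7 or 1.5 nM doubling to 3 µM, in Tris-HCl pH 7.5 buffer with KCl, MgCl2, BSA, DTT, tRNA and Tween-20. Steps lasted 0.8–1.5 h (lowest) to 10–20 min (highest). Titrations ran without input, with 200 uM small-molecule ligand, or with an oligonucleotide input. Normalised cluster fluorescence was curve-fitted, and apparent KD is the per-design median over clusters.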

[1] = Eterna round: R95, input ligand: FMN 200 uM
[2] = Eterna round: R95, input ligand: microRNA oligo, concentration not stated
[3] = Eterna round: R95, input ligand: none
[4] = input ligand: microRNA oligo, concentration not stated

Sequence | apparent KD of MS2 coat protein [1] [nM] | apparent KD of MS2 coat protein [2] [nM] | apparent KD of MS2 coat protein [3] [nM] | apparent KD of MS2 coat protein (input ligand: FMN 200 uM) [nM] | apparent KD of MS2 coat protein [4] [nM] | apparent KD of MS2 coat protein (input ligand: none) [nM]
GAUAGAGAGCAGGAUAUCUUGGAUAAGUAUAGUAGAGAAGGGCUCACAUGAGGAUCACCCAUGUGGUCCUAGAU [JL Dibiri mod 11] (puzzle: Exclusion 6) | 43.8 | 14.9 | 15 |  |  | 
GGUGGACAUGAGGAUCACCCAUGUGAGGAUAUCGGCUGGUACGUGUUGGCUGGCAUCUCGAGAAGGCACAUCGU [Exclusion 1 V64] (Eterna round: R96, puzzle: Exclusion 1) |  |  |  | 181 | 46 | 49
UUGGACGGAGGAUAUGCAGCGAGUAAUACGAUCGAUCCAAAACAUGAGGAUCACCCAUGUAGAAGGCUGACCAA [Eternabot (L1) Solution 11] (Eterna round: R97, puzzle: Exclusion 2) |  |  |  | 174 |  | 71.2
UUUAAUUUUUUUUUUUUACAAGCUUUUUGCUCGUCUUAUACAUGAGGAUCACCCAUGUGGGUAAGGGAUAAAUUAUC [JMF 37] (Eterna round: R96, puzzle: Sensor v3, turn-off variant 2) |  |  |  | 65.4 | 51.8 | 59
CACGUGUCAGGAUAUAGGACAGAUAUAGUCACAAUCUCUGCCUAGAAGGGACAUGAGGAUCACCCAUGUCUAUA [EX4 C.17] (Eterna round: R97, puzzle: Exclusion 4) |  |  |  | 27.6 |  | 20.5
CUAUUGGCAGGAUAUGCUUUUUUAGACAUGAGGAUCACCCAUGUGAUGAAUUUUGGGUUUGCAGAAGGGCCUGAGU [JR_E5_Sub038] (puzzle: Exclusion 5) |  | 56.6 |  |  |  | 
CUUGCGGACAAAGGAUAUUGCGGUGACCGGCUCGGCGUACCGAGCCUACAUGAGGAUCACCCAUGUAAGAAGGUUGACGCUGGU [JL ViennaUCT Qudice mod 4] (Eterna round: R96, puzzle: Exclusion NG 2) |  |  |  | 106 | 20 | 27.6
AGUAUGUUAGGAUAUUCCAUUGCUGUCAGCUCGGCGUCACAGAAGAAGGGACAUGAGGAUCACCCAUGUUAGGC [Eternabot (L1) Solution 96] (Eterna round: R97, puzzle: Exclusion 4) |  |  |  | 57.3 |  | 71.4
UUCAUUGCAGGAUAUACAUGAGGAUCACCCAUGUGACCAGUGGCCUGUUGCGGCUCCAGUAGAAGGGCAUGUGU [Eternabot (L2) Solution 89] (Eterna round: R97, puzzle: Exclusion 3) |  |  |  | 63.8 |  | 61.2
UUUAGUUCAGGAUAUGUAGAUUUAAACAUGAGGAUCACCCAUGUAAAUCCUGAUCCUGCUACAGAAGGGAACAUUU [Mat - Exclusion 5 - Eli Mod - D11] (Eterna round: R97, puzzle: Exclusion 5) |  |  |  | 16.6 |  | 12.7
AAGUAGUGACAGGAUAUUGUUCAUGAUAUGGAACAAGAAGGGUUAACAUGAGGAUCACCCAUGUAUCCUCCGUG [Eternabot (L2) Solution 14] (Eterna round: R97, puzzle: Exclusion 6) |  |  |  | 401 |  | 44.9
GCACGGUAAGUGAGGAUAUACCUCUGGAUACAGAGGUAGAAGGCACAUGAGGAUCACCCAUGUCCAAGCCGUGC [Fiskers BMX 4 - 84] (puzzle: Brourd's mod of Exclusion 4) |  | 22.8 |  |  |  | 
CCUUUGUCAGGAUAUCAGAAAACGCCCGUAGGGAGCGCAAAUGAGAAGGGACAUGAGGAUCACCCAUGUAAAGA [Edvereri] (puzzle: Exclusion 4) | 204 | 50.1 | 53 |  |  | 
UCCUCACAUGAGGAUCACCCAUGUGAGGAUAUGGGCCCGGGCCCGAAAGGGCCCGGGCCCAGAAGGCACUGGGU [MoB_2] (Eterna round: R97, puzzle: Exclusion 1) |  |  |  | 25 |  | 56.1
UGUCUUGCAGGAUAUACAUGAGGAUCACCCAUGUAUAUUGAUGAGGGAGAUCUACUAGGUAGAAGGGUAAGAGA [Eternabot (L2) Solution 59] (Eterna round: R97, puzzle: Exclusion 3) |  |  |  | 45 |  | 17.8
AGCUAGUCAGGAUAUUCUAAUAAUUACAUGAGGAUCACCCAUGUGAAGGGACAAGGGUGUGAAGAAGGGACUAGCG [Omei Ex5 A3] (Eterna round: R97, puzzle: Exclusion 5) |  |  |  | 358 |  | 529
UAAUAUAGAGGAUAUACAUGAGGAUCACCCAUGUGAGUCCAUUAUGGGAUGAGAUCGGGUAGAAGGCUACGAAU [Eternabot (L2) Solution 28] (Eterna round: R97, puzzle: Exclusion 3) |  |  |  | 143 |  | 57.7

Sequence | apparent KD of MS2 coat protein [1] [nM] | apparent KD of MS2 coat protein [2] [nM] | apparent KD of MS2 coat protein [3] [nM] | apparent KD of MS2 coat protein (input ligand: FMN 200 uM) [nM] | apparent KD of MS2 coat protein [4] [nM] | apparent KD of MS2 coat protein (input ligand: none) [nM]
AUAUAGAUGGUCAGGAUAUGCUAGUGAUAACAGUAGCAGAAGGGACAUGAGGAUCACCCAUGUGGAUACCGCAC [Brourd's EX4 #7] (Eterna round: R97, puzzle: Brourd's mod of Exclusion 4) |  |  |  | 122 |  | 31.9
ACAAGCUCUGUGGGUGGUGACAUGAGGAUCACCCAUGUUUUGCUCGUCUUGUGCCGGGCCCGGCGCCCGGGCCCGGC [-40.5, -69.4, A 8%] (Eterna round: R97, puzzle: Sensor, turn-off variant 1) |  |  |  | 261 |  | 715
UCUCACUCAGGAUAUCUUCCGCAUGACAUGAGGAUCACCCAUGUGUGCAUGCCCUUUGGUAGAGAAGGGAGUGAGA [eternacac ex5r4 #5] (Eterna round: R97, puzzle: Exclusion 5) |  |  |  | 22.7 |  | 24.4
ACCUAUGAGGAGGAUAUACGGUGCGAAAGGAAGGUAGAAGGCUUCACAUGAGGAUCACCCAUGUCGAUAAGCGA [EX6 #85] (Eterna round: R97, puzzle: Exclusion 6) |  |  |  | 27.7 |  | 23.3
AGCCAAGCAGGAUAUAUCCGGGAUAACAUGAGGAUCACCCAUGUGACCGAUUGAUAUCCUAUAGAAGGGCUUGGGA [Mod of ViennaUCT 23 - Jieux - Exclusion 5] (Eterna round: R97, puzzle: Exclusion 5) |  |  |  | 135 |  | 43.5
UGUUGUUACGCAGGAUAUUGUCAACAGGCAGUAGGAUAUCCGAAAGGAGAAGGACCGCCAACAGGCGAGAAGGGCGGGUUAACA [pwkr exNG2 2xF7 2xFMN.7] (Eterna round: R96, puzzle: Exclusion NG 2) |  |  |  | 369 | 167 | 323
CGGAUGUAAGGAUAUCGUGCAAGUUUCAAAAGAGGCUUGUGCGAGAAGGUACAUGAGGAUCACCCAUGUAGGUU [Omei Ex4 B6] (Eterna round: R97, puzzle: Exclusion 4) |  |  |  | 157 |  | 75.8
CAAACUUCGCGAGGAUAUGGGAUCAUAUAGAUGCCAGAAGGCGCGACAUGAGGAUCACCCAUGUGUUUUGCCCUGUGAUUCCAG [Eternabot solution 12] (Eterna round: R96, puzzle: Exclusion NG 1) |  |  |  | 22.2 | 16.6 | 21.5
GGUAGUAUGAGUAGUCCUCAUUGAAGAGAUUGGUAAGAUACAUGAGGAUCACCCAUGUUUGAACAAGCUUUUGCUCA [JR_Sv3TOV2_Sub006] (puzzle: Sensor v3, turn-off variant 2) | 141 | 53 | 298 |  |  | 
UGCGCUUAAGGAUAUACUUCGGUGCGCCGAGAGUACGGCUAACUUGAGGAUCACCCAAGUAGAAGGUAAGAAAC [Esleberibe] (Eterna round: R97, puzzle: Exclusion 2) |  |  |  | 42 |  | 1270
UCGUUCCGUGUAGGAUAUUGGCCUUCUCUGGGCCGAGAAGGACAUGAGGAUCACCCAUGUAUGUUAUUAUCACGCGUGGCGCAU [Design 84] (Eterna round: R96, puzzle: Exclusion NG 1) |  |  |  | 181 | 22.9 | 25.1
GGUUGGCGAGGAUAUACAUGAGGAUCACCCAUGUGAGAGAAUAAAGUGAGAAAGAAAAGUAGAAGGCGCUGACG [Mat - Exclusion 3 - Mod of Salish D49] (puzzle: Exclusion 3) | 728 | 56.9 | 43.3 |  |  | 
ACGCAUUGCCUUUGGUAGUGCGUAACAUGAGGAUCACCCAUGUAGGAUAUGGUAGGCUUUGCUUACCAGAAGGACAUAAUAAAU [Mat - Exclusion NG 3 - Mod of JL - D2] (Eterna round: R96, puzzle: Exclusion NG 3) |  |  |  | 52.7 | 25.1 | 28.8
CAUACUCAAGUCAGGAUAUACAGUCGGAUACGGGUGUAGAAGGGACAUGAGGAUCACCCAUGUAGAGAGUAAAG [EX-4 Malc #23] (puzzle: Brourd's mod of Exclusion 4) | 87 | 31.1 | 53.8 |  |  | 
CUAAAAGUCGAGGAUAUGCACCGGCUCGCUGACGCAGAAGGCGACACAUGAGGAUCACCCAUGUCGGUACGCGA [salish99_ex6_r004_451] (Eterna round: R97, puzzle: Exclusion 6) |  |  |  | 33.9 |  | 18.3
CCGCUCCGUGUAGGAUAUUGGCGUGCCCUGCGCCGAGAAGGACAUGAGGAUCACCCAUGUAUGUUAUUAUCACGCGUGGCGCAU [Design 77] (Eterna round: R96, puzzle: Exclusion NG 1) |  |  |  | 32.2 | 16.7 | 22
